Reference: patent WO2007054120A1 (dated 2007)

How the values were obtained:
[1] = target: T1, recombinant fibronectin domain ED-B (His)6 (human, UniProt P02751 1266-1356); experiment: SPR (BIAcore), about 100 RU ED-B on chip, Fab in flow
T1 construct: domain: ED-B; Biotinylated ED-B was used only in pannings; also called rekombinantes ED-B; human ED-B

[2] = target: T1, recombinant fibronectin domain ED-B …; experiment: SPR (BIAcore), ED-B on chip, Fab in flow
[3] = target: T1, recombinant fibronectin domain ED-B …; experiment: SPR (BIAcore), ED-B on chip, Fab monomer in flow

Binder	Kd [1] [nM]	further results
MOR03243 (Fab, V domains shown) VH: QVQLQESGPGLVKPGETLSLTCTVSGGSISSYYWSWIRQAPGKGLEWIGEIHRGGYTQYNPSLKSRVTISVDTSKNQFSLKLSSVTAADTAVYYCARFFDVWGQGTLVTVSS VL: DIVLTQPPSVSGAPGQRVTISCSGSSSNIGSNTVRWYQQLPGTAPKLLIYSNNKRPSGVPDRFSGSKSGTSASLAITGLQSEDEADYYCQAWTRAHRYPVFGGGTKLTVLG	~0.7	–
MOR03245 (Fab, V domains shown) VH: QVQLQESGPGLVKPGETLSLTCTVSGGSISSYYWSWIRQAPGKGLEWIGVIHKWGFTNYNPSLKSRVTISVDTSKNQFSLKLSSVTAADTAVYYCARFFDVWGQGTLVTVSS VL: DIVLTQPPSVSGAPGQRVTISCSGSSSNIGSNTVRWYQQLPGTAPKLLIYSNNKRPSGVPDRFSGSKSGTSASLAITGLQSEDEADYYCWTGMSYHFVFGGGTKLTVLG	~0.7	–
MOR03062 (Fab, V domains shown) VH: QVQLVESGGGLVQPGGSLRLSCAASGFTFSSYGMHWVRQAPGKGLEWVSVISSSGSYIYYADSVKGRFTISRDNSKNTLYLQMNSLRAEDTAVYYCARNKVGFDVWGQGTLVTVSS VL: DIALTQPASVSGSPGQSITISCTGTSSDGGGYNTVSWYQQHPGKAPKLMIYYVHKRPSGVSNRFSGSKSGNTASLTISGLQAEDEADYYCQSWDLSVHQVVFGGGTKLTVLG	–	fold affinity enhancement against MOR02715 [2]: 15 fold; Kd [3]: 2.4 nM
MOR03246 (Fab, V domains shown) VH: QVQLVQSGAEVKKPGASVKVSCKASGYTFTGFYINWVRQAPGQGLEWMGWINPYSGNTRYAQKFQGRVTMTRDTSISTAYMELSSLRSEDTAVYYCARSPVYYKYDYWGQGTLVTVSS VL: DIVLTQPPSVSGAPGQRVTISCSGSSSNIGSNTVRWYQQLPGTAPKLLIYSNNKRPSGVPDRFSGSKSGTSASLAITGLQSEDEADYYCQSWDPRSFTVFGGGTKLTVL	0.6	–
MOR03075 (Fab, V domains shown) VH: QVQLQESGPGLVKPGETLSLTCTVSGGSISSYYWSWIRQAPGKGLEWIGIGHWGSTQYNPSLKGRVTISVDTSKNQFSLKLSSVTAEDTAVYYCARFFDVWGQGTLVTVSS VL: DIVLTQPPSVSGAPGQRVTISCSGSSSNIGSNTVRWYQQLPGTAPKLLIYSNNKRPSGVPDRFSGSKSGTSASLAITGLQSEDEADYYCQSWDPRSFTVFGGGTKLTVLG	–	Kd [2]: 2.4 nM

Now from value to binder, other results behind:

Kd [1] [nM]	Binder	further results
0.03	MOR03255 (Fab, V domains shown) VH: QVQLVESGGGLVQPGGSLRLSCAASGFTFSSYGMHWVRQAPGKGLEWVSVISNRSSYIYYADSVKGRFTISRDNSKNTLYLQMNSLRAEDTAVYYCARNKVGFDVWGQGTLVTVSS VL: DIALTQPASVSGSPGQSITISCTGTSSDGGGYNTVSWYQQHPGKAPKLMIYYVHKRPSGVSNRFSGSKSGNTASLTISGLQAEDEADYYCQSWDLSVHQVVFGGGTKLTVLG	–
0.04	MOR03258 (Fab, V domains shown) VH: QVQLVESGGGLVQPGGSLRLSCAASGFTFSSYGMHWVRQAPGKGLEWVSVISNQSNYIYYADSVKGRFTISRDNSKNTLYLQMNSLRAEDTAVYYCARNKVGFDVWGQGTLVTVSS VL: DIALTQPASVSGSPGQSITISCTGTSSDGGGYNTVSWYQQHPGKAPKLMIYYVHKRPSGVSNRFSGSKSGNTASLTISGLQAEDEADYYCQSWDLLAPSVVFGGGTKLTVL	–
